Laboratory results reported in patent publication US20210309751A1.

How the values were obtained:
[1] = target: RevCAR harboring the La 5B9 epitope tag, on RevCAR expressing cells (human); experiment: binding assay on RevCAR expressing target cells
[2] = target: CD123 (interleukin-3 receptor a chain) on CD123-expressing OCI-AML3 blasts (human) (UniProt P26951); experiment: binding assay on CD123-expressing OCI-AML3 cells
Chain of UniProt P26951 (P26951 19-378): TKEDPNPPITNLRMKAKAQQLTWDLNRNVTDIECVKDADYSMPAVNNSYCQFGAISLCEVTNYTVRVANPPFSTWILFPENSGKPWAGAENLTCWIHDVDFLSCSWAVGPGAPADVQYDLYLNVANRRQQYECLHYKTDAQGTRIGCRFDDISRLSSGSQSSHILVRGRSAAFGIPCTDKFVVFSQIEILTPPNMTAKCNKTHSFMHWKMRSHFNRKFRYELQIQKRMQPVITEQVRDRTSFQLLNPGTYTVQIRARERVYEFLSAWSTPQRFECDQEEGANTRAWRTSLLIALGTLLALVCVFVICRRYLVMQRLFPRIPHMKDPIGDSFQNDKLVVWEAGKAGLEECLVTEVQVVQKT

B1: AdMo CD123-La5B9 (CD123-specific adapter module with an scFv recognizing the La 5B9 epitope) (bispecific antibody, part only; not given: linkers, domain order, tags, V domains shown, not shown: another chain or arm of the molecule; small tags and cut ends)
VH 1: QVQLVQSGAEVKKPGASVKVSCKASGYTFTHYYIYWVRQAPGQGLEWMGGVNPSNGGTHFNEKFKSRVTMTRDTSISTAYMELSRLRSDDTAVYYCARSEYDYGLGFAYWGQGTLVTVSS
VL 1: DIVMTQSPDSLAVSLGERATINCKSSQSLLNSRTPKNYLAWYQQKPGQPPKLLIYWASTRKSGVPDRFSGSGSGTDFTLTISSLQAEDVAVYYCKQSYNLLTFGGGTKVEIK
VH 2: EVQLQQSGPELVKPGASVKMSCKASGYTFTDYYMKWVKQSHGKSLEWIGDIIPSNGATFYNQKFKGKATLTVDRSSSTAYMHLNSLTSEDSAVYYCTRSHLLRASWFAYWGQGTLVTVS
VL 2: DFVMTQSPSSLTVTAGEKVTMSCKSSQSLLNSGNQKNYLTWYLQKPGQPPKLLIYWASTRESGVPDRFTGSGSGTDFTLTISSVQAEDLAVYYCQNDYSYPYTFGGGTKLEIK
[1]
  Kd: 0.012 nM
[2]
  Kd: 0.015 nM
